What was measured:
Format in all cases: biochemical
Bovine spleen trypsin = molecular target: T1, Bovine spleen trypsin (Bos taurus, UniProt P00760); assay: Assay for trypsin inhibitory activity (Example 35); conditions: enzyme 2 × 10^-7 M, substrate 1.0 × 10^-3 M
T1 construct: purchased Sigma
T1 sequence (P00760 24-246): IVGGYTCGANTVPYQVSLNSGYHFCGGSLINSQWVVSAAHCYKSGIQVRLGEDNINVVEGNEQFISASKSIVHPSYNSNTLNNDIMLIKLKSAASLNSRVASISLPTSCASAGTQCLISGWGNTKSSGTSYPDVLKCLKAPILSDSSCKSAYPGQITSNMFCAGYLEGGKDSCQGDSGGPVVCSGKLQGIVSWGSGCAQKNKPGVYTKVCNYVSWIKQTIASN
Description: (§1) Assay method used was as follows.
(§2) Buffer: 0.1M (2-hydroxyethyl)piperazine-N'-2-ethansulfonic acid (HEPES), 0.5M NaCl, pH 7.5.
(§3) Enzyme concentration: the following enzyme was dissolved in the above-mentioned buffer to a concentration 9 times that shown in Table 22.
B. Bovine spleen trypsin (Sigma)
Substrate solution: for the enzymes A, B, C, D and E, the following substrate a, b, c, d or e, respectively, was dissolved in a solution of DMSO +the above-mentioned buffer (1:9) (note, final concentration of DMSO was 10% in the buffer) to a concentration of 9 times that shown in Table 22. […]
(§4) To wells of an ELISA 96-well microtiter plate, were added 120 μl of the buffer and the 20 μl of a sample solution of (Arg^58 -Ala^107) SLPI obtained in Example 34, followed by 20 μl of the enzyme solution. The mixture was reacted at 37° C. for 10 minutes. Next, 20 μl of the substrate was added, and developed at 37° C. The developed color was measured by absorption at 405 nm.
(§5) As a control the same procedure was carried out using SLPI.

Human plasma kallikrein = molecular target: T2, Human plasma kallikrein (Homo sapiens, UniProt P03952); assay: Assay for kallikrein inhibitory activity (Example 36); conditions: final concentration up to ×10^-5 M; enzyme 1.0 × 10^-7 M
T2 construct: (7) Human plasma kallikrein (Kabi, Daiichi Kagaku Yakuhin); purchased Kabi (via Daiichi Kagaku Yakuhin); host or cells: human plasma
Description: H. Human plasma kallikrein (Protogene, Funakoshi Yakuhin)
Kallikrein: 50 mM Tris-HCl, 361 mM NaCl, 0.01 mg/ml Polybrene (pH 7.8) […]
(§6) Substrate solution: for the enzymes F, G, H and I, the following substrate f, g, h or i, respectively, was dissolved to a final concentration shown in Table 24.
h. H.D-Pro-Phe-Arg-pNA (Kabi Vitram)
(§7) To wells of an ELISA 96-well microtiter plate, were added a solution of (Arg^58 -Ala^107) SLPI obtained in Example 34 and then the enzyme solution, and the mixture was incubated at 37° C. for 10 minutes. Next, the substrate solution was added to develop the color, whose absorption was then measured at 405 nm. As a control, SLPI was used.

Human plasma thrombin = molecular target: T3, Human plasma thrombin (Homo sapiens, UniProt P00734); assay: Assay for thrombin inhibitory activity (Example 36); conditions: final concentration up to ×10^-5 M; enzyme 3 × 10^-9 M
T3 construct: (5) Human plasma thrombin (Kabi, Daiichi Kagaku Yakuhin); purchased Kabi (via Daiichi Kagaku Yakuhin); host or cells: human plasma
Description: F. Human plasma thrombin (Sigma)
(§8) Thrombin and FXa: 50 mM Tris-HCl, 7.5 mM EDTA-2Na, 175 mM NaCl (pH 8.4) […]
as §6
f. H.D-Phe-Pip-Arg-pNA (Kabi Vitrum)
as §7

[1] = molecular target: T4, polymorphonuclear leucocyte elastase from human sputum (Homo sapiens, UniProt P08246); assay: Assay for elastase inhibitory activity (Example 35); conditions: enzyme 2 × 10^-8 M, substrate 3.0 × 10^-4 M
T4 construct: Polymorphonuclear leukocyte elastase from human sputum (EPC Co; Funakoshi Yakuhin); purchased EPC Co. (via Funakoshi Yakuhin); host or cells: human sputum
T4 sequence (P08246 30-267): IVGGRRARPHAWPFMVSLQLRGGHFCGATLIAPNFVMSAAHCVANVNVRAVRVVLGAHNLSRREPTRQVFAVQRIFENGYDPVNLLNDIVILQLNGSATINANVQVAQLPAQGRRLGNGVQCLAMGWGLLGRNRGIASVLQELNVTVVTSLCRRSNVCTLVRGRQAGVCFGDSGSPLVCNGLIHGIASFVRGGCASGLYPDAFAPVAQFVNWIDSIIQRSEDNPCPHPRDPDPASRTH
Description: as §1, §2, §3
(§9) A. Polymorphonuclear leucocyte elastase from human sputum (EPC Co., Funakoshi Yakuhin)
Substrate solution: for the enzymes A, B, C, D and E, the following substrate a, b, c, d or e, respectively, was dissolved in a solution of DMSO +the above-mentioned buffer (1:9) (note, final concentration of DMSO was 10% in the buffer) to a concentration of 9 times that shown in Table 22.
(§10) a. MeO-Suc-Ala-Ala-Pro-Val-pNA (Bachem) […]
as §4, §5

[2] = test system: polymorphonuclear leucocyte elastase from human sputum; assay: Inhibitory constant (Ki) assay, elastase (Example 37); conditions: from Table 26
Description: Method for assay is as follow.
Buffer: 0.1M N-(2-hydroxyethyl)piperazine-N'-2-ethanesulfonic acid (HEPES), 1.0M NaCl, 0.1% polyethylene glycol (pH 7.5)
Enzyme solution: the following enzyme was dissolved in the above-mentioned buffer to a concentration 9 times that shown in Table 25.
as §9
Substrate solution: for the enzymes A and B, the following substrate a or b was dissolved in a solution of DMSO+the above-mentioned buffer (1:9), or in DMSO, respectively.
as §10
To wells of an ELISA 96-well microtiter plate, were added 120 μl of the buffer, 20 μl of a sample solution of ([…] -Ala^107) SLPI obtained in Example 25, and 20 μl of the enzyme solution in this order, an the mixture was reacted at 37° C. for 1 hour. Next, 20 μl of the substrate was added to develop at 25° C. Absorption of the developed color was measured at 405 nm. As a control, SLPI was used.
On the basis of the result thus obtained, an inhibitory constant (Ki) of (Arg^58 -Ala^107) SLPI of the present invention was calculated according to the method of Henderson (Henderson, P. J. F. (1972), Biochem. J. 127, 321-333).

Porcine FXa = assay: Assay for Fxa inhibitory activity (Example 36); conditions: final concentration up to ×10^-5 M; enzyme 1.0 × 10^-8 M
Description: I. Porcine FXa (Daichi Seiyaku)
as §8, §6
i. Ratio 1:1 mixture of the following compounds: [drawing 6]
as §7

Human plasma plasmin = molecular target: T5, Human plasma plasmin (Homo sapiens, UniProt P00747); assay: Assay for plasmin inhibitory activity (Example 36); conditions: final concentration up to ×10^-5 M; enzyme 1.0 × 10^-7 M
T5 construct: (6) Human plasma plasmin (Kabi, Daiichi Kagaku Yakuhin); purchased Kabi (via Daiichi Kagaku Yakuhin); host or cells: human plasma
Description: G. Human plasma plasmin (sigma)
Plasmin: 50 mM Tris-HCl, 100 mM NaCl (pH 7.4) […]
as §6
g. H.D-Val-Leu-Lys-pNA (Kabi Vitrum)
as §7

T5 sequence (P00747 581-810 limits assumed): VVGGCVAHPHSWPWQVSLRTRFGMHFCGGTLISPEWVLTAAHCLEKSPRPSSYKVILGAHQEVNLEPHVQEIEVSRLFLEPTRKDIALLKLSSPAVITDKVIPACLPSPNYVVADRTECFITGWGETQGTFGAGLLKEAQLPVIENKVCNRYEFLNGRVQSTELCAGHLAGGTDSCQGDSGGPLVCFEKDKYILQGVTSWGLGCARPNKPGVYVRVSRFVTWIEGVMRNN
T5 sequence (P00747 97-580 partner limits assumed): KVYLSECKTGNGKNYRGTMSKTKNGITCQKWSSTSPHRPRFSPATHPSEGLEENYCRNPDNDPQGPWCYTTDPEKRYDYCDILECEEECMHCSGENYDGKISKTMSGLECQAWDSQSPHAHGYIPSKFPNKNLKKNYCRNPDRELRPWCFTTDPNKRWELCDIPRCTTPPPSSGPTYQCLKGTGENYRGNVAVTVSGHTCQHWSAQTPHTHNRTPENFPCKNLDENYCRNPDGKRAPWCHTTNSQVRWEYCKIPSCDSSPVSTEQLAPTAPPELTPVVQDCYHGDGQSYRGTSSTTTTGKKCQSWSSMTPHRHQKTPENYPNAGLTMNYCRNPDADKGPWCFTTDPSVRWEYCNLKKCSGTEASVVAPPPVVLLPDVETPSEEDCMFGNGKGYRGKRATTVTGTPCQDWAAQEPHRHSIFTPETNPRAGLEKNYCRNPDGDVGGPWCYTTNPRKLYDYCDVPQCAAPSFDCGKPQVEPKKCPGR
T2 sequence (P03952 391-638 limits assumed): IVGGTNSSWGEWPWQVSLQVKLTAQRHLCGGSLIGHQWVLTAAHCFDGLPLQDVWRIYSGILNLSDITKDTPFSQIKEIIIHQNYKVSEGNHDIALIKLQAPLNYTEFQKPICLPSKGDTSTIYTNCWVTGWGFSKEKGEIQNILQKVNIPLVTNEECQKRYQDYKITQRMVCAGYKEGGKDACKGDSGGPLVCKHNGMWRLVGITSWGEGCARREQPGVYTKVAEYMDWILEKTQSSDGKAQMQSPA
T2 sequence (P03952 20-390 partner limits assumed): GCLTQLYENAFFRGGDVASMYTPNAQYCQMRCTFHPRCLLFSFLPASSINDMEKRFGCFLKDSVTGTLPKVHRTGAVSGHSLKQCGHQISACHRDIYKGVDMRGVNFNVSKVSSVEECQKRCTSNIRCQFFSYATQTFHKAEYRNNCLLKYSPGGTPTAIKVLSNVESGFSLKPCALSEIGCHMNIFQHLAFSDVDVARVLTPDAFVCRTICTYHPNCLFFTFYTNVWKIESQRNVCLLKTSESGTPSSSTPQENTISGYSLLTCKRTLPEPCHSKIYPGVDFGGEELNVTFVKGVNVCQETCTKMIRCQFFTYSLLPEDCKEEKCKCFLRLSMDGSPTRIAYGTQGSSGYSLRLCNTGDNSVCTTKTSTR

IC50 (Bovine spleen trypsin): 2 µM
inhibitory activity to kallikrein (Human plasma kallikrein): did not exhibit inhibitory activity
inhibitory activity to thrombin (Human plasma thrombin): did not exhibit inhibitory activity
IC50 [1]: 0.012 µM
relative ratio of inhibitory activity on trypsin to that on elastase (Ki(T)/Ki(E)) [2]: about 12,000
inhibitory activity to plasmin (Human plasma plasmin): did not exhibit inhibitory activity
Substance: (Arg^58 -Ala^107) SLPI: polypeptide having an amino acid sequence starting with the 58th Arg and ending at the 107th Ala of SLPI (RRKPGKCPVTYGQCLMLNPPNFCEMDGQCKRDLKCCMGMCGKSCVSPVKA)
inhibitory activity to FXa (Porcine FXa): did not exhibit inhibitory activity
